Where two headings read alike, the source gives them in different places.
Legend:
[1] = biological target: the molecule itself; assay: SEC
[2] = biological target: the molecule itself; assay: SEC; remark: listed apart in the source
[3] = biological target: T1, SopB FL (Escherichia coli F plasmid, UniProt P62558 1-323); assay: fluorescence polarization
T1 sequence: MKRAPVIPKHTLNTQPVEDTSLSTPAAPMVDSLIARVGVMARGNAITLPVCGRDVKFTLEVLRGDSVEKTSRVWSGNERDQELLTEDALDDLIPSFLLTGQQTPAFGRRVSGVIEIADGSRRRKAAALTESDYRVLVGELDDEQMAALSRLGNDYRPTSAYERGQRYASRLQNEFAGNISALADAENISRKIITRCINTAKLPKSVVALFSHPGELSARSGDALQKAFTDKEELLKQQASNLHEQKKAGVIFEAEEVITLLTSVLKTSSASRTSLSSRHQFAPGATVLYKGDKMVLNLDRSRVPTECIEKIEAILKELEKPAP

[4] = biological target: T1, SopB FL; assay: X-ray crystallography
[5] = biological target: T2, SopB(155-323) (Escherichia coli F plasmid, UniProt P62558 155-323); assay: X-ray crystallography
T2 sequence: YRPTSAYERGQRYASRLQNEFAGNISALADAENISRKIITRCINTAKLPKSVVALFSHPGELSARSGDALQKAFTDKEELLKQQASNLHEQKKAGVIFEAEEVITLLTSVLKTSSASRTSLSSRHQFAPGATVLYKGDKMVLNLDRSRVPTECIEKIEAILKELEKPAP

Binder: LSSRHQFAPGATVLYKGDKMVLNLDRSRVPTECIEKIEAILKELEKPAP (domain or fragment, F plasmid, UniProt P62558 275-323, looked up) [SopB(275–323)]
- stoichiometry N [1]: 2

B1: SopB(155–272) (domain or fragment, F plasmid, UniProt P62558 155-272, looked up)
chain: YRPTSAYERGQRYASRLQNEFAGNISALADAENISRKIITRCINTAKLPKSVVALFSHPGELSARSGDALQKAFTDKEELLKQQASNLHEQKKAGVIFEAEEVITLLTSVLKTSSASR
- stoichiometry N [2]: 2

B2: sopC 18mer (FP) (dsDNA)
DNA 1: CTGGGACCATGGTCCCAG
DNA 2: CTGGGACCATGGTCCCAG
- Kd [3]: 223 ± 44 nM

B3: sopC 43mer (FP) (dsDNA)
DNA 1: GGTCTGATTATTAGTCTGGGACCACGGTCCCACTCGTATCGTC
DNA 2: GACGATACGAGTGGGACCGTGGTCCCAGACTAATAATCAGACC
- Kd [3]: 324 ± 43 nM

B4: sopC 18mer 5-bromouracil (dsDNA)
DNA 1: CTGGGACCATGGTCCCAG
DNA 2: CTGGGACCATGGTCCCAG
modifications: 5-bromouracil substitutions (positions not given)
- binding result [4]: binds
- binding result [5]: binds
